T1: IFN-γ receptor (IFNGR; IFNGR1 and IFNGR2) on human cells (human, UniProt P15260 18-489; P38484 22-337)
T1 sequence (looked up) 1: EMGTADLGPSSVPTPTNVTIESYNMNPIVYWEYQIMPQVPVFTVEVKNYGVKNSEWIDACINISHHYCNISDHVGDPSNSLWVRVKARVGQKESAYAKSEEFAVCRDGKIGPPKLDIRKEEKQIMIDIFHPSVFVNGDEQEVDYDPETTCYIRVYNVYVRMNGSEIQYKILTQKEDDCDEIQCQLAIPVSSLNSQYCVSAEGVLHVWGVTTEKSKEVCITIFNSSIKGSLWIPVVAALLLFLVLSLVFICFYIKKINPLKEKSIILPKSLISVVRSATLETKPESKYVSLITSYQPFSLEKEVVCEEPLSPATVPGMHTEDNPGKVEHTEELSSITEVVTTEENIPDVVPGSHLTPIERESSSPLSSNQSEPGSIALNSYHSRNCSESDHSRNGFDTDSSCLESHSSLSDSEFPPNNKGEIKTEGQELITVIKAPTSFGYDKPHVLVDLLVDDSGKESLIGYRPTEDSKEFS
T1 sequence (looked up) 2: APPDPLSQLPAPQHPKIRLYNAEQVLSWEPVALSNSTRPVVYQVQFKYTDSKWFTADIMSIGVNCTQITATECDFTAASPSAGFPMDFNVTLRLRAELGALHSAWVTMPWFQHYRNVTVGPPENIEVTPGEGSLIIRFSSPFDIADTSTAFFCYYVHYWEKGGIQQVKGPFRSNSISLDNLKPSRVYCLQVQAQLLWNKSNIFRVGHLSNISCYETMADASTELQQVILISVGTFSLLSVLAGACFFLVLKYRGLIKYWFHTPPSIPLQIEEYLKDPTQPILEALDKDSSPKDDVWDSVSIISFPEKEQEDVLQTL

T2: IFNγR1 fused to the constant region of the antibody IgG1 (UniProt P15260 18-245, limits assumed)
T2 construct: also called IFNGR1; Interferon gamma receptor 1 fused to the Fc region; not shown: constant region (Fc) of IgG1, captured on the chip by an anti-human IgG antibody
T2 sequence (looked up): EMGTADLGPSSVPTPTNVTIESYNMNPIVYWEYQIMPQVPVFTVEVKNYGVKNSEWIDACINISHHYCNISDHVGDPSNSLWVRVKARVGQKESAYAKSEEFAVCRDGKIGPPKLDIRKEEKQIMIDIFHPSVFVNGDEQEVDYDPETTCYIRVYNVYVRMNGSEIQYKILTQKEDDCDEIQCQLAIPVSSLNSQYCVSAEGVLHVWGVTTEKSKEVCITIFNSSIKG


What was measured:
[1] = target: T1, IFN-γ receptor (IFNGR; IFNGR1 and …); assay: cell-based or functional assay
[2] = target: T1, IFN-γ receptor (IFNGR; IFNGR1 and …); assay: cell-based or functional assay; remark: listed apart in the source
[3] = target: T2, IFNγR1 fused to the constant region of …; assay: SPR (Biacore, CM5 chip), IFNγR1-IgG1 Fc captured by anti-human IgG, analyte injected
Experimental: Briefly, the surface of a BAcore™ CM5 sensor chip was coated with anti-human IgG antibody comprising IFNγR1 fused to the constant region of the antibody IgG₁.
Each of the IFN-γ-b protein, the M135C, S98C, and S66C cysteine muteins, and Compounds 1, 2, and 3 were separately injected onto the sensor chip which was coated with IFNγR1. The affinities were measured by determining the kinetic on-rate (kₒₙ) and the kinetic off-rate (koff) rates separately, and the ratio between kₒₙ and koff was used to calculate the Kd values with the results shown in Table 9.

[4] = target: T2, IFNγR1 fused to the constant region of …; assay: SPR (Biacore, CM5 chip), IFNγR1-IgG1 Fc captured by anti-human IgG

Binder	EC50 (ng/mL)-% pSTAT1, CD14+CD16+ (Intermediate) monocytes of human PBMCs [1] [ng/mL]	EC50 (ng/mL)-% pSTAT1, CD14+CD16- (Classical) monocytes of human PBMCs [1] [ng/mL]	EC50 (ng/mL)-% pSTAT1, CD14loCD16hi (Non-classical) monocytes of human PBMCs [1] [ng/mL]	EC50 (ng/mL)-MFI of pSTAT1, Classical monocytes of human PBMCs [1] [ng/mL]	EC50 (ng/mL)-MFI of pSTAT1, Intermediate monocytes of human PBMCs [1] [ng/mL]	EC50 (ng/mL)-MFI of pSTAT1, Non-classical monocytes of human PBMCs [1] [ng/mL]	EC50 in HT-29 cells, MHCI [2] [ng/mL]	EC50 in HT-29 cells, MHCII [2] [ng/mL]	EC50 in HT-29 cells, PD-L1 [2] [ng/mL]	EC50 in HT-29 cells, pSTAT1 [2] [ng/mL]	Kd [3] [nM]	koff [3] [s⁻¹]	kon [3] [M⁻¹ s⁻¹]	fold decrease in affinity against IFN-γ-M135C [4] [fold]
rhIFN-γ-1b-N98C cysteine mutein (ligand) MQDPYVKEAENLKKYFNAGHSDVADNGTLFLGILKNWKEESDRKIMQSQIVSFYFKLFKNFKDDQSIQKSVETIKEDMNVKFFNSNKKKRDDFEKLTCYSVTDLNVQRKAIHELIQVMAELSPAAKTGKRKRSQMLFRGR										1.7				
rhIFN-γ-1b-M135C cysteine mutein (ligand, also called IFN-γ-M135C; hIFN-γ M135C) MQDPYVKEAENLKKYFNAGHSDVADNGTLFLGILKNWKEESDRKIMQSQIVSFYFKLFKNFKDDQSIQKSVETIKEDMNVKFFNSNKKKRDDFEKLTNYSVTDLNVQRKAIHELIQVMAELSPAAKTGKRKRSQCLFRGR										1.4	0.123			
Compound 1, mono-mPEG-MAL-10K-rhIFN-γ-1b-M135C (ligand, Cys135 thioether-linked to linear mPEG-maleimide of about 10,000 daltons (mPEG-MAL-10K), succinimide ring closed, also called mPEG-MAL-10K-M135C-IFN-γ; M135C 10K linear) MQDPYVKEAENLKKYFNAGHSDVADNGTLFLGILKNWKEESDRKIMQSQIVSFYFKLFKNFKDDQSIQKSVETIKEDMNVKFFNSNKKKRDDFEKLTNYSVTDLNVQRKAIHELIQVMAELSPAAKTGKRKRSQCLFRGR	0.084	0.222	0.106	2.16	0.85	0.99	0.099	0.83	1.1	11	1.42	0.00221	1.61e+06	~10

Second part, the binder after the results:

EC50 (ng/mL)-% pSTAT1, CD14+CD16+ (Intermediate) monocytes of human PBMCs [1] [ng/mL]	EC50 (ng/mL)-% pSTAT1, CD14+CD16- (Classical) monocytes of human PBMCs [1] [ng/mL]	EC50 (ng/mL)-% pSTAT1, CD14loCD16hi (Non-classical) monocytes of human PBMCs [1] [ng/mL]	EC50 (ng/mL)-MFI of pSTAT1, Classical monocytes of human PBMCs [1] [ng/mL]	EC50 (ng/mL)-MFI of pSTAT1, Intermediate monocytes of human PBMCs [1] [ng/mL]	EC50 (ng/mL)-MFI of pSTAT1, Non-classical monocytes of human PBMCs [1] [ng/mL]	EC50 in HT-29 cells, MHCI [2] [ng/mL]	EC50 in HT-29 cells, MHCII [2] [ng/mL]	EC50 in HT-29 cells, PD-L1 [2] [ng/mL]	EC50 in HT-29 cells, pSTAT1 [2] [ng/mL]	Kd [3] [nM]	koff [3] [s⁻¹]	kon [3] [M⁻¹ s⁻¹]	fold decrease in affinity against IFN-γ-M135C [4] [fold]	Binder
4.38	14	4.84	64.2	32.7	35	0.17	1.8	2.2	89	4.9	0.00157	321000		Compound 3, mono-mPEG2-ru-MAL-20K-rhIFN-γ-1b-M135C (ring closed) (ligand, Cys135 thioether-linked to branched mPEG2-maleimide of about 20,000 daltons (mPEG2-MAL-20K), succinimide ring closed, also called mPEG2-MAL-20K-M135C-IFN-γ; M135C 20K branched (RC)) MQDPYVKEAENLKKYFNAGHSDVADNGTLFLGILKNWKEESDRKIMQSQIVSFYFKLFKNFKDDQSIQKSVETIKEDMNVKFFNSNKKKRDDFEKLTNYSVTDLNVQRKAIHELIQVMAELSPAAKTGKRKRSQCLFRGR
									1.5	0.534	0.00137	2.57e+06		rhIFN-γ-1b-S66C cysteine mutein (ligand, also called IFN-γ-S66C; hIFN-γ S66C) MQDPYVKEAENLKKYFNAGHSDVADNGTLFLGILKNWKEESDRKIMQSQIVSFYFKLFKNFKDDQCIQKSVETIKEDMNVKFFNSNKKKRDDFEKLTNYSVTDLNVQRKAIHELIQVMAELSPAAKTGKRKRSQMLFRGR
0.179	1.45	0.367	7.62	4.28	4.57	0.076	0.7	1.2	14	1.88	0.00106	637000		Compound 2, mono-mPEG-MAL-20K-rhIFN-γ-1b-M135C (ligand, Cys135 thioether-linked to linear mPEG-maleimide of about 20,000 daltons (mPEG-MAL-20K), succinimide ring closed, also called mPEG-MAL-20K-M135C-IFN-γ; M135C 20K linear) MQDPYVKEAENLKKYFNAGHSDVADNGTLFLGILKNWKEESDRKIMQSQIVSFYFKLFKNFKDDQSIQKSVETIKEDMNVKFFNSNKKKRDDFEKLTNYSVTDLNVQRKAIHELIQVMAELSPAAKTGKRKRSQCLFRGR

— US20250270273A1 (NEKTAR THERAPEUTICS, published 2025)
